Results published in US20140248273A1 (published 2014).

Target: His-tagged SSL3 (S. aureus strain NCTC 8325), with the pRSETB N-terminal tag carrying the Xpress epitope (Staphylococcus aureus strain NCTC 8325, UniProt Q2G0X7 31-356)
Assay: ELISA, coated extracellular domain of mouse TLR2 (FIG. 5A)

B1: recombinant extracellular domain of mouse TLR2 (receptor)
chain: QESLSCDASGVCDGRSRSFTSIPSGLTAAMKSLDLSFNKITYIGHGDLRACANLQVLILKSSRINTIEGDAFYSLGSLEHLDLSDNHLSSLSSSWFGPLSSLKYLNLMGNPYQTLGVTSLFPNLTNLQTLRIGNVETFSEIRRIDFAGLTSLNELEIKALSLRNYQSQSLKSIRDIHHLTLHLSESAFLLEIFADILSSVRYLELRDTNLARFQFSPLPVDEVSSPMKKLAFRGSVLTDESFNELLKLLRYILELSEVEFDDCTLNGLGDFNPSESDVVSELGKVETVTIRRLHIPQFYLFYDLSTVYSLLEKVKRITVENSKVFLVPCSFSQHLKSLEFLDLSENLMVEEYLKNSACKGAWPSLQTLVLSQNHLRSMQKTGEILLTLKNLTSLDISRNTFHPMPDSCQWPEKMRFLNLSSTGIRVVKTCIPQTLEVLDVSNNNLDSFSLFLPRLQELYISRNKLKTLPDASLFPVLLVMKIRENAVSTFSKDQLGSFPKLETLEAGDNHFVCSCELLSFTMETPALAQILVDWPDSYLCDSPPRLHGHRLQDARPSVLECHQ
notes: extracellular domain; also called mTLR2
B1: binds.
